# Reference: patent US20260035456A1 (SHANGHAI JEYOU PHARMACEUTICAL, published 2026)
# Where a chain is given by its changes, count along the chain named.
# B1: hybridoma clone 40E12 (antibody, V domains shown)
# VH: QIQLVQSGPELRKPGETVKISCKASGYAFTTFGMSWIKQAPGQGLKWMGWINTYSRVPKYTDDFKGRFAFSLEISATTAYLLINNLKNGDTATYFCARGYGGEGGLGFSGQGTTLTVSS
# VL: DVLMTQTPFSLPVSLGDQASISCRSSQSIIDSDGNTYLEWYLQKPGQSPKLLIYKVSNRFSGVPDRFSGSGSGTDFTLRISRVEAEDLGVYYCFQGSHFPYTFAGGTKLELK
# notes: Murine hybridoma antibody purified on protein A; also called candidate antibody 40E12
# B2: monoclone 1F12 (from the fully human single-chain phage antibody library) (scFv, V domains shown)
# VH: QVQLVQSGAEVKKPGASVKVSCKASGYTFTSYGISWVRQAPGQGLEWMGWISAYNGNTNYAQKLQGRVTMTRDTSTSTAYMELRSLRSDDTAVYYCAREGRSGGSFDIWGQGTMVTVSS
# VL: DIQMTQSPSSLSASVGDRVTITCRASQGISSYLAWYQQKPGKAPKLLIYDASNLETGVPSRFSGSGSGTDFTFTISSLQPEDIATYYCQQYDNLPLTFGGGTKVEIK
# notes: Tested as E. coli culture supernatant of a clone of a single-chain library
# B3: Ab2004.Am01 (Fab displayed on yeast) (Fab, V domains shown)
# VH: B2 VH with N55Q, S102W, D107N
# VL: B2 VL
# B4: Ab2004.Am31 (Fab displayed on yeast) (Fab, V domains shown)
# VH: B2 VH with S31Q, S35A, N55Q, S102W, D107N
# VL: B2 VL with Q27E, S31E
# notes: Yeast monoclonal colony of library JYYDL227 (Fab display)
# B5: Ab2004.Am39 (Fab displayed on yeast) (Fab, V domains shown)
# VH: B2 VH with S31H, S35A, N55Q, S102W, D107N
# VL: B2 VL with N93D, P95D
# notes: as for B4
# B6: Ab2004.Am37 (Fab displayed on yeast) (Fab, V domains shown)
# VH: B2 VH with A53P, N55T, N57K, S102W, D107N
# VL: B2 VL with A51V, N53I, E55D, T56A
# notes: as for B4
# B7: Ab2004.Am40 (Fab displayed on yeast) (Fab, V domains shown)
# VH: B2 VH with S31Q, S35A, N55Q, S102W, D107N
# VL: B2 VL with N93D, T97S
# notes: as for B4
# B8: Ab2004.Am33 (Fab displayed on yeast) (Fab, V domains shown)
# VH: B2 VH with A53P, N55S, S102W, D107N
# VL: B2 VL with Q27E, S31E
# notes: as for B4
# B9: Ab2004.Am36 (Fab displayed on yeast) (Fab, V domains shown)
# VH: B2 VH with S31Q, S35A, N55Q, S102W, D107N
# VL: B2 VL with L54V, E55D
# notes: as for B4
# B10: Ab2004.Am32 (Fab displayed on yeast) (Fab, V domains shown)
# VH: B2 VH with S31Q, S35A, N55Q, S102W, D107N
# VL: B2 VL with S26A, Q27E, S30G
# notes: as for B4
# B11: Ab2004.Am38 (Fab displayed on yeast) (Fab, V domains shown)
# VH: B2 VH with A53P, N55T, N57K, S102W, D107N
# VL: B2 VL with A51T, N53D, E55D
# notes: as for B4
# B12: Ab2004.Am35 (Fab displayed on yeast) (Fab, V domains shown)
# VH: B2 VH with S31Q, S35A, N55Q, S102W, D107N
# VL: B2 VL with A51V, N53I, E55D, T56A
# notes: as for B4
# B13: Ab2004.Am34 (Fab displayed on yeast) (Fab, V domains shown)
# VH: B2 VH with S31H, S35A, N55Q, S102W, D107N
# VL: B2 VL with A51V, N53I, E55D, T56A
# notes: as for B4
# Columns and labels:
# [1] = target: T1, 19 amino acid polypeptide at the N-terminus of mouse ADM (mouse); experiment: ELISA, peptide coated at 1.0 ug/mL, hybridoma supernatant
# T1 construct: Coated on the ELISA plate in the hybridoma screening; also called YY-19
# T1 peptide: YRQSMNQGSRSNGCRFGTC
# Protocol: (§1) YY-21 or YY-19 was diluted with PBS to 1.0 μg/mL, added to a 96-well plate (Corning, 9018), with 100 μL/well, and incubated at 4° C. overnight for coating. The ELISA plate was washed 3 times with a washing buffer (PBS+0.05% Tween 20) on an automatic plate washer the next day. 300 μL of a blocking buffer (PBS+0.05% Tween 20+1% BSA) was added to each well, and the plate was placed at room temperature for 1 h for blocking. The plate was then washed 3 times with the washing buffer on the automatic plate washer, and the hybridoma supernatant was added to each well of the ELISA plate. The plate was placed and incubated at room temperature for 1 h, and then washed 3 times according to the method described above. Goat Anti-mouse IgG Fc-HRP (Sigma, A0168) or Goat Anti-rat-IgG-HRP (Sigma, A5795) was diluted in 1:5000 with the blocking buffer, with 100 μL/well. The plate was placed and incubated at room temperature for 1 h. The plate was then washed 3 times according to the method described above. A TMB substrate solution was added with 100 μL/well and incubated at room temperature for 10 min, then 50 μL of 1.0 M hydrochloric acid was added to each well to terminate the reaction, and the plate was read by a microplate reader at OD₄₅₀ nm. […]
# [2] = target: T2, 21 amino acid polypeptide at the N-terminus of human ADM (human); experiment: as above
# T2 construct: Coated on the ELISA plate in the hybridoma screening; also called YY-21
# T2 peptide: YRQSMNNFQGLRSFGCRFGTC
# Protocol: as §1
# biotin-labeled human ADM [3] = target: T3, biotin-labeled human ADM (human, not fully specified; biotin label (named human ADM-C-biotin in Example 1.4; position of the biotin not stated for the other lots)); experiment: BLI (Octet RED96e), biotinylated antigen on streptavidin sensor, antibody 100 nM, 1:1 fit
# T3 construct: Synthetic peptide; also called human ADM-C-biotin; hADM-Biotin
# T3 peptide: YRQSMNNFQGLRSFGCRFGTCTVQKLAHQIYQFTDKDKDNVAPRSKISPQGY
# Protocol: (§2) The affinity of the candidate antibody for biotin-labeled human ADM (human ADM-C-biotin for short, the sequence of human ADM is set forth in SEQ ID NO: 4) and mouse ADM (mouse ADM-C-biotin for short, the sequence of mouse ADM is set forth in SEQ ID NO: 5) was determined by adopting Octet RED96e (Fortebio). The antigens and antibody were all diluted with 1× PBST, the concentration of the antigen used was 2 μg/mL, and the working concentration of the antibody used was 100 nM.
# (§3) First, the sample was added to a 96-well plate (Greiner bio-one, 655209) with a system of 200 μL/well. Software parameters were then set, the plate temperature was set to 30° C., and the standard kinetic signal was collected at a frequency of 5.0 HZ. Next, a streptavidin sensor (Fortébio, Cat. No. 18-5020) was pre-wetted with 1× PBST for 10 min and then tested on a machine. Each cycle included the following steps: 1) immersing the sensor in a buffer for 180 s to stabilize the baseline; 2) immobilizing the antigen for 10 s, allowing the antigen to bind to the sensor, and controlling the binding amount of the antigen between 0.5 nm and 1.0 nm; 3) immersing the sensor in the buffer for 180 s; 4) binding the antigen to the antibody for the binding time of 180 s; and 5) dissociating the antigen and the antibody for 10 min.
# (§4) The equilibrium dissociation constant (KD) of the antibody was calculated by measuring the association rate (Kon) and the dissociation rate (Koff) of the antigen-antibody in a 1:1 binding manner by adopting the Data Analysis 12.0 software from Fortebio.
# biotin-labeled mouse ADM [4] = target: T4, biotin-labeled mouse ADM (mouse, not fully specified; biotin label (named mouse ADM-C-biotin in Example 1.4; position of the biotin not stated for the other lots)); experiment: as above
# T4 construct: Synthetic peptide; also called mouse ADM-C-biotin; mADM-Biotin
# T4 peptide: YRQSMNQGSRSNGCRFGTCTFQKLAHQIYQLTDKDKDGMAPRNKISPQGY
# Protocol: as §2, §3, §4
# biotin-labeled human ADM [5] = target: T3, biotin-labeled human ADM; experiment: ELISA of E. coli culture supernatant of phage library monoclones
# biotin-labeled human ADM [6] = target: T3, biotin-labeled human ADM; experiment: flow staining of yeast-displayed Fab at graded antigen concentrations
# Source text: (§5) For the first round of screening products of JYYDL227, 46 monoclones were picked for sequencing, and finally, a yeast monoclonal colony with a unique sequence was obtained for EC₅₀ identification by flow staining.
# (§6) According to the staining results of the clones (as shown in Table 6) in combination with the similarity of the sequences of the clones, the monoclones expressing antibodies Ab2004.Am31 (with amino acid sequences of variable regions set forth in SEQ ID NOs: 31 and 36), Ab2004.Am32 (with amino acid sequences of variable regions set forth in SEQ ID NOs: 31 and 37), Ab2004.Am33 (with amino acid sequences of variable regions set forth in SEQ ID NOs: 32 and 36), Ab2004.Am34 (with amino acid sequences of variable regions set forth in SEQ ID NOs: 33 and 38), Ab2004.Am35 (with amino acid sequences of variable regions set forth in SEQ ID NOs: 31 and 38), Ab2004.Am36 (with amino acid sequences of variable regions set forth in SEQ ID NOs: 31 and 39), Ab2004.Am37 (with amino acid sequences of variable regions set forth in SEQ ID NOs: 34 and 38), Ab2004.Am38 (with amino acid sequences of variable regions set forth in SEQ ID NOs: 34 and 40), Ab2004.Am39 (with amino acid sequences of variable regions set forth in SEQ ID NOs: 33 and 41), and Ab2004.Am40 (with amino acid sequences of variable regions set forth in SEQ ID NOs: 31 and 42) were finally selected. The amino acid sequences of the Chothia-numbered CDRs of the candidate antibodies are shown in Table 7, and the amino acid sequences of the light and heavy chain variable regions of the candidate antibodies are shown in Table 8.
# biotin-labeled mouse ADM [7] = target: T4, biotin-labeled mouse ADM; experiment: as above
# Source text: as §5, §6
Binder,EC50 (biotin-labeled human ADM [6]) [nM],EC50 (biotin-labeled mouse ADM [7]) [nM],also measured
B1,–,–,binding result [1]: binds; binding result [2]: binds; Kd (biotin-labeled human ADM [3]): 0.314 nM; koff (biotin-labeled human ADM [3]): 0.000109 s⁻¹; kon (biotin-labeled human ADM [3]): 347000 M⁻¹ s⁻¹; Kd (biotin-labeled mouse ADM [4]): 0.236 nM; koff (biotin-labeled mouse ADM [4]): 8.9e-05 s⁻¹; kon (biotin-labeled mouse ADM [4]): 377000 M⁻¹ s⁻¹
B2,–,–,binding result (biotin-labeled human ADM [5]): binds
B3,4,88.2,–
B4,0.45,1.66,–
B5,0.86,4.23,–
B6,0.88,6.74,–
B7,0.5,2.5,–
B8,0.79,15,–
B9,1.73,2.67,–
B10,0.41,2.2,–
B11,0.74,14.3,–
B12,1.47,2.26,–
B13,1.06,4.43,–
